Residue numbers refer to the chain shown, from its start.

In test [1] the target is T1, Human CD228 protein (human, UniProt P08582 20-708, limits assumed).
T1 construct: Recombinant protein made in CHO cells, purified over a Ni column; The printed entry begins with the leader (MRGPSG...) and ends with ten His; also called hCD228; CD228-His protein
T1 sequence: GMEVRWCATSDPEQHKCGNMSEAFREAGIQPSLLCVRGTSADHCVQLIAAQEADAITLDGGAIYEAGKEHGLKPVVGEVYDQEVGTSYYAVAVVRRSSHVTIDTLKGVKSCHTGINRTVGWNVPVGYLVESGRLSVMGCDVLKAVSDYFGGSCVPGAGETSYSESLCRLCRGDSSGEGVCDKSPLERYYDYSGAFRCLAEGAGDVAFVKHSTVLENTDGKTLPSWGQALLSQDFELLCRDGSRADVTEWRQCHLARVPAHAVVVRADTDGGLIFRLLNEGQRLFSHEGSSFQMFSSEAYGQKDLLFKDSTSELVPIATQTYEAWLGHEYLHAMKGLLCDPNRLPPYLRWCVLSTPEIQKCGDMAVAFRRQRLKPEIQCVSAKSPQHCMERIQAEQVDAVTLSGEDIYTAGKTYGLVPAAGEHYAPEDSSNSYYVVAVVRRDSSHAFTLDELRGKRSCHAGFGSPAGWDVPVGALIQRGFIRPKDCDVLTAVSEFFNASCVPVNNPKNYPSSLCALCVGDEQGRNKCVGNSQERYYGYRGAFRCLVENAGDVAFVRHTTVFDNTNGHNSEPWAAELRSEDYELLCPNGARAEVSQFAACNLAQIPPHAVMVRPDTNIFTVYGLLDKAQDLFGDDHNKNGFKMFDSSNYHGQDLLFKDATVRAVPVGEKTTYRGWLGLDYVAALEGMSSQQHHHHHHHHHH
Nature of the test: ELISA, plate coated with human CD228 protein. The protocol:
Human CD228 protein (prepared by Boan, 20201014, SEQ ID NO: 41) was diluted to 0.1 μg/mL with a carbonate-buffered saline (hereinafter referred to as CBS) at pH 9.6. Microplates were coated with the protein at 100 μL/well, and incubated at 4° C. overnight. After washing, the microplates were blocked with skimmed milk powder. The plates were washed, before antibodies diluted with PBST (phosphate-buffered saline, Solarbio P1010, +0.05% Tween20) were added at 100 μL/well. The diluted antibodies were intact antibodies comprising Fc, Fab and the constant region serially 3-fold diluted from 0.1 μg/mL to 8 concentrations with PBST. After washing the plates, goat anti-human IgG (H+L)/HRP (diluted at 1:5000, KPL, 474-1006) was added at 100 μL/well, and the plates were incubated at 37° C. for 1 h. After washing the plates, TMB (Beijing Makewonderbio, 1001) was added at 100 μL/well for chromogenesis, and after 10 min, 50 μL of 2 M H₂SO₄ was added to stop the chromogenesis. OD450 was measured on a microplate reader. The antibody hL49 targeting CD228 from Seagen was used as a reference antibody in this study and the following studies.

Test [2] has as its target T1, Human CD228 protein. Put plainly: Octet competition on His-chip CD228; competitor: CA13. The protocol: (§1) CD228 proteins were immobilized on His chips at 10 μg/mL with a threshold of 0.5 nm. The first CD228 antibody (30 μg/mL) was immobilized, and the competitive binding of the second CD228 antibody (30 μg/mL) was analyzed. The Octet 8K system was used to analyze the response of antibody 2 and to determine whether antibody 1 and antibody 2 were in competition.

For test [3], the target named is T1, Human CD228 protein. Nature of the test: Octet competition on His-chip CD228; competitor: CA67. The protocol: as §1
The target in test [4] is T1, Human CD228 protein. Put plainly: Octet competition on His-chip CD228; competitor: BA352. The protocol:
as §1
The final competition analysis was conducted using the following calculation method: 1—response value/blank value.

The target of test [5] is T2, CD228 protein on human melanoma SK-MEL-5 cells (human, UniProt P08582 20-709).
T2 construct: whole, on cells; Endogenous CD228 on the cell line; also called SK-MEL-5 cells (expressing CD228 proteins)
T2 sequence (looked up): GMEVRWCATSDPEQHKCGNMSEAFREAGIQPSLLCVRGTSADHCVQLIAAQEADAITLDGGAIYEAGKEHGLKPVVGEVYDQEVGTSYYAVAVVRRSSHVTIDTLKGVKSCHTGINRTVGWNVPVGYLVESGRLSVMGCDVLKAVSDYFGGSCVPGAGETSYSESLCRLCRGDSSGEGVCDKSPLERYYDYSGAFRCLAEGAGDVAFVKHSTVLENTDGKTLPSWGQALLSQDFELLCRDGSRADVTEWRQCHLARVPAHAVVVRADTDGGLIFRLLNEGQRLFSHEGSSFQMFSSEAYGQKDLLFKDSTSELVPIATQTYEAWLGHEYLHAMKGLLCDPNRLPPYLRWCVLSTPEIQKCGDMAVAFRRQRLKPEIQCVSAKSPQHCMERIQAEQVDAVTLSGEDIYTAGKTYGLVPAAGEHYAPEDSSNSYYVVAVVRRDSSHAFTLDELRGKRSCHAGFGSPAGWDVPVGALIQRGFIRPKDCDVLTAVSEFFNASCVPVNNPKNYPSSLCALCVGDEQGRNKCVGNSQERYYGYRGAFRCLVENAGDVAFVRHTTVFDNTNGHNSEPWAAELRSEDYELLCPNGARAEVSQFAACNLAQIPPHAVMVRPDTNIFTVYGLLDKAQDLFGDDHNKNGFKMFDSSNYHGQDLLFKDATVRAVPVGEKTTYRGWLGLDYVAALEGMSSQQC
Nature of the test: flow cytometry on SK-MEL-5 cells, fluorescent secondary antibody, MFI. The protocol:
To a 96-well round-bottom plate, human melanoma SK-MEL-5 cells (ATCC, HTB-70) were added with a cell density of 7E4 cells/50 μL/well. The antibodies were serially diluted with an FACS buffer (PBS, Boster Biological Technology, Catalog No. PYG0021) and added to the 96-well round-bottom plate at 50 μL/well. The plate was then incubated at 4° C. for 1 h. The supernatant was discarded after centrifugation at 400 g for 4 min. The plate was washed once with FACS buffer, before a fluorescent secondary antibody (Jackson, 109545-008) at 100 μL/well was added. The mixture was incubated at 4° C. in the dark for 30 min and centrifuged at 400 g for 4 min. The supernatant was discarded. The cells were washed once with FACS buffer, resuspended in FACS buffer at 100 μL/well, and loaded on a flow cytometer (ACEA Pharma, NovoCyte 2060) for analysis. […] The isotype reference antibody in FIG. 4 is an irrelevant antibody targeting other antigens with constant regions similar to the experimental anti-CD228 antibodies but with different variable regions.

B1: reference antibody hL49 (antibody, human IgG1, kappa, V domains shown)
VH: QVQLQESGPGLVKPSETLSLTCTVSGDSITSGYWNWIRQPPGKGLEYIGYISDSGITYYNPSLKSRVTISRDTSKNQYSLKLSSVTAADTAVYYCARRTLATYYAMDYWGQGTLVTVSS
VL: DFVMTQSPLSLPVTLGQPASISCRASQSLVHSDGNTYLHWYQQRPGQSPRLLIYRVSNRFSGVPDRFSGSGSGTDFTLKISRVEAEDVGVYYCSQSTHVPPTFGQGTKLEIKR
notes: also called H149; hL49 analogy
For the molecule B1, the EC50 was found to be 0.0278 µg/mL in the test with Human CD228 protein [1] and 0.195 µg/mL in test [5]. The results for the Octet response value with Human CD228 protein [2] and with Human CD228 protein [3] were 0.418 and 0.456, respectively. For the same molecule, the “competition (1-response value/blank value)” value in the test with Human CD228 protein [4] worked out at 55%.

B2: CA149 (antibody, human IgG1, kappa, V domains shown)
VH: EVQLVESGGGVVQPGRSLRLSCAASGFTFSSYAMHWVRQAPGKGLEWVAVISFDGSNKYYTDSVKGRFTISRDNSKNTLYLQMNSLRAEDTAVYYCAREVPYYYGSGPFDYWGQGTLVTVSS
VL: EIVLTQSPATLSVSPGERATLSCRASQSVSSNLAWYQQKPGQAPRHLIDGASSRASGIPDRFSGSGSGTDFTLTISRLEPEDFAVYYCQQYGSSPPFTFGPGTKVDIKR
notes: Intact IgG1; also called CA149 antibody
Take B2: the EC50 with Human CD228 protein [1] was 0.0036 µg/mL; in test [5] it was 0.135 µg/mL. The Octet response value in the test with Human CD228 protein [2] stood at 0.0117; with Human CD228 protein [3], 0.0087. Besides, the “competition (1-response value/blank value)” value in the test with Human CD228 protein [4] is -12%.

B3: CA185 (antibody, human IgG1, kappa, V domains shown)
VH: B2 VH with F53Y, T61A
VL: EIVLTQSPGTLSLSPGERATLSCRASQSVSSSSLAWYQQKPGQAPRHLIDGASSRASGIPDRFSGSGSGTDFTLTISRLEPEDFAVYYCQQYGSSYTFGQGTKVDIKR
notes: Intact IgG1
As to B3, the EC50 with Human CD228 protein [1] came out at 0.0039 µg/mL; in test [5] it was 0.123 µg/mL. Besides, the Octet response value in the test with Human CD228 protein [2] came to 0.0046; with Human CD228 protein [3], 0.0028. The “competition (1-response value/blank value)” value with Human CD228 protein [4] was -17%.

B4: CA13 (antibody, human IgG1, kappa, V domains shown)
VH: EVQLVESGGGVVQPGRSLRLSCAASGFTFSSYAMHWVRQAPGKGLEWVAVISYDGSNKYYADSVKGRFTISRDNSKNTLFLQMNSLRAEDTAVYYCARDVYHYGSRSPYYYGMDVWGQGTTVTVSS
VL: DIVMTQSPSSLSASVGDRVTITCRASQGISNYLAWFQQKPGKVPKLLIYAASTLQSGVPSRFSGSGSGTDFTLTISSLQPEDVATYYCQKYNSAPFTFGPGTKVDIKR
notes: Intact IgG1 from fully human antibody-transgenic mice
Take B4: the EC50 with Human CD228 protein [1] amounted to 0.0032 µg/mL; in test [5], 0.083 µg/mL. The figures for the Octet response value in the test with Human CD228 protein [2] and in the test with Human CD228 protein [3] were -0.0011 and -0.0021, respectively. In addition, the “competition (1-response value/blank value)” value with Human CD228 protein [4] is -9%.

B5: CA518 (antibody, human IgG1, kappa, V domains shown)
VH: B4 VH with Y60H, A97V
VL: B4 VL with V3Q, L11V, N31S, Y32W, F36Y, V43A, T53S
notes: Intact IgG1
Consider B5, for which the EC50 in the test with Human CD228 protein [1] worked out at 0.0043 µg/mL; in test [5], 0.081 µg/mL. For the same molecule, the figures for the Octet response value with Human CD228 protein [2] and in the test with Human CD228 protein [3] were 0.006 and 0.0039, respectively. The “competition (1-response value/blank value)” value with Human CD228 protein [4] is -5%.

B6: CA67 (antibody, human IgG1, kappa, V domains shown)
VH: B4 VH with F80Y
VL: B4 VL with V3Q, G28A, F36Y, Q55H, S56P
notes: Intact IgG1
Regarding B6, the figures for the EC50 (in the test with Human CD228 protein [1]; in test [5]) were 0.0038 µg/mL and 0.096 µg/mL, respectively. In addition, the figures for the Octet response value with Human CD228 protein [2] and in the test with Human CD228 protein [3] were -0.0065 and -0.007, respectively. Also, the “competition (1-response value/blank value)” value with Human CD228 protein [4] is -8%.

B7: BA352 (antibody, human IgG1, kappa, V domains shown)
VH: EVQLVESGGGVVQPGRSLRLSCAASGFTFSSYAMHWVRQAPGKGLEWVAVISYDGSNKYYADSVKGRFTISRDNSKNTLYLQMNSLRAEDTAVYYCARGPYLAAAGTALTFDIWGQGTMVTVSS
VL: DIQMTQSPSAMSASVGDRVTITCRASQGINNYLAWFQQKPGKVPKRLIYAASSLQSGVPSRFSGSGSGTEFTLTISSLQPEDFATYYCLQHNSYPFTFGPGTKVDIKR
notes: Intact IgG1
In the case of B7, the EC50 with Human CD228 protein [1] amounted to 0.0061 µg/mL; in test [5], 0.152 µg/mL. Further, the Octet response value turned out to be 0.424 with Human CD228 protein [2] and 0.443 in the test with Human CD228 protein [3]. The “competition (1-response value/blank value)” value with Human CD228 protein [4] turned out to be 94%.

The record behind these values is US20250121082A1 (SHANDONG BOAN BIOTECHNOLOGY, published 2025).
